The source of these data is the supplement of paper PMC10567573.

The data set can be described thus: protein stability index of a GFP-peptide fusion (GPS, HEK-293T) (PSI 1-6); higher = more stable.
Setting [1] is: treatment: DMSO, c terminus: a fixed tail appended.
Setting [2] is: treatment: MLN4924 1 uM, 8 h, c terminus: a fixed tail appended.

± gives the standard deviation.
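Note: 24-mer peptide tiles fused after GFP, lentivirally expressed, FACS-sorted into six equal bins by GFP/DsRed ratio, decoded by Illumina sequencing, PSI is the read-weighted mean bin number.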

For QPSDRLMTEKQQEEAEWESINVLL [CEP70], the protein stability index stood at 4.38 ± 0.11 under setting [1] and 4.33 ± 0.12 under setting [2].

As for ESLLAPLNVELDPEIQKVRAQERE [KRT71], the protein stability index reads like this: under setting [1], 5.54 ± 0.44; under setting [2], 5.48 ± 0.2.

Take SRKVTTNKLLLSIIILLELAILGG [VTI1B]: the protein stability index is, setting by setting: under setting [1], 2.98 ± 0.7; under setting [2], 2.84 ± 0.65.

Consider LEENDETRFILSKVPSEAPSPMPT [SLC6A17], for which the protein stability index under setting [1] was found to be 4.8 ± 0.15 and the protein stability index under setting [2] was 4.84 ± 0.17.

As for TLNIKETDSKELSMAKEVIAKELS [ZBED1], the protein stability index worked out at 3.87 ± 0.086 under setting [1] and 4.13 ± 0.12 under setting [2].

For the sequence LANSWNCLPKHLLHSVNQRFGSNN [KLHDC2], the protein stability index reads like this: under setting [1], 2.43 ± 0.33; under setting [2], 2.3 ± 0.23.

Take HDRNMDWVSTQLQATCNVHKSAFN [FADS1]: the protein stability index under setting [1] worked out at 3.22 ± 0.29 and the protein stability index under setting [2] came to 3.46 ± 0.2.

Take ESSVPSTVGCSSQHTPDQANSDRA [PLEKHN1]: the protein stability index under setting [1] was 5.42 ± 0.2 and the protein stability index under setting [2] is 5.61 ± 0.16.

Regarding STCDTLGMADVGTVCDPARSCAIV [ADAMTS4], the protein stability index under setting [1] turned out to be 3.92 ± 0.34 and the protein stability index under setting [2] was 3.69 ± 0.083.

QKTRLLEDSVSRLEKEIEVLERGD [PALM] came in with a protein stability index under setting [1] of 4.96 ± 0.069 and a protein stability index under setting [2] of 5.03 ± 0.27.

As to LRLYKHNSQALLLHSSILTCTLLL [MFSD9], the protein stability index was 2.74 ± 0.6 under setting [1] and 2.88 ± 0.67 under setting [2].

Turning to MHYQMSVTLKYEIKKLIYVHLVIW [JAGN1], the protein stability index stood at 3.1 ± 0.32 under setting [1] and 3.15 ± 0.8 under setting [2].

With QFFTKGYQETISDVLNDAIFDEDH [GCH1], the protein stability index is, setting by setting: under setting [1], 4.01 ± 0.33; under setting [2], 3.92 ± 0.07.

In turn, QKSPWCEARSLEHTLPVNRETLKR [ESR2] had a protein stability index under setting [1] of 4.23 ± 0.16 and a protein stability index under setting [2] of 4.41 ± 0.21.

For the sequence ADQKLVIIKQIPVEQMTKEERQAA [NEK8], the protein stability index by setting is: under setting [1], 4.62 ± 0.24; under setting [2], 4.61 ± 0.23.

For PLLLLCNIKPRRYLTVVFEHDAWF [SLC29A1], the protein stability index is, setting by setting: under setting [1], 3.09 ± 0.71; under setting [2], 3.06 ± 0.52.

For TNTTSTQMTNIGVYVSNMTDKLVT [IQUB], the protein stability index under setting [1] was determined as 2.78 ± 0.3 and the protein stability index under setting [2] stood at 2.8 ± 0.34.

In the case of KTLQEIYRKYRKLIESELSYFVIV [FBXO39], the protein stability index runs as follows: under setting [1], 2.37 ± 0.41; under setting [2], 2.62 ± 0.55.

As for LLHSRNEGVATYAAAVLFRMSEDK [CTNNB1], the protein stability index is, setting by setting: under setting [1], 2.9 ± 0.36; under setting [2], 3.22 ± 0.087.

For the sequence FAKAGDTLSGTCLLIANKRQSYDI [CARM1], the protein stability index by setting is: under setting [1], 2.48 ± 0.38; under setting [2], 2.36 ± 0.41.

SMALTCTFNRWGTLLAVGCNDGRI [RBBP5]: the protein stability index was found to be 2.48 ± 0.33 under setting [1] and 2.35 ± 0.34 under setting [2].

On to YDASAIDFSRCDMDGATLCNCALE [ELF3], for which the protein stability index by setting is: under setting [1], 3.99 ± 0.32; under setting [2], 4.02 ± 0.33.

Consider HELGHVFNMLHDNSKPCISLNGPL [ADAMTS4], for which the protein stability index was 3 ± 0.49 under setting [1] and 2.93 ± 0.28 under setting [2].

For the sequence LVYENFYADFGPLNLAMVYRYCCK [CDC14A], the protein stability index amounted to 2.8 ± 0.27 under setting [1] and 2.5 ± 0.55 under setting [2].

As for PSKVEVTEKTTTVLSESSGPSNTS [C2CD2L], the protein stability index under setting [1] is 5.43 ± 0.095 and the protein stability index under setting [2] is 5.44 ± 0.23.

As to QARTQKLQGLIPGARYEVTVVSVR [TNXB], the protein stability index under setting [2] came to 2.22 ± 0.42.

As to ITLSQEQIQKYTDCLQFYVNSTLK [RTN1], the protein stability index is, setting by setting: under setting [1], 2.08 ± 0.1; under setting [2], 2.1 ± 0.086.

The sequence DMRRDEEGSLCAAHLPKAQLSGYA [FBF1] came in with a protein stability index under setting [1] of 4.12 ± 0.25 and a protein stability index under setting [2] of 4.15 ± 0.25.

AKNAAKDMNGKSLHGKAIKVEQAK [RBMY1A1]: the protein stability index was 4.64 ± 0.23 under setting [1] and 5.01 ± 0.53 under setting [2].

Regarding VLFSTHTLDKCGICQGDGSSCTHV [ADAMTSL2], the protein stability index under setting [1] is 3.8 ± 0.22 and the protein stability index under setting [2] stood at 4.09 ± 0.19.

Take TSKDLVTLGASSLREERGHPLHPR [C6orf223]: the protein stability index was 4.26 ± 0.063 under setting [1] and 4.33 ± 0.18 under setting [2].

Take EEAISVVMSGKMSVSKAQSIYGIP [LCOR]: the protein stability index came out at 2.69 ± 0.17 under setting [1] and 2.53 ± 0.087 under setting [2].

RRCTNIRPGETGMDVTSRCTLGDP [KLHL20]: the protein stability index is 3.99 ± 0.24 under setting [1] and 4.13 ± 0.21 under setting [2].

With AQALRQELERQRRLLGSVQQDLER [PBXIP1], the protein stability index under setting [1] worked out at 4.08 ± 0.091 and the protein stability index under setting [2] amounted to 4.23 ± 0.12.

In the case of DKCSAPKIWRTPNGKTIEMDTQFT [IQUB], the protein stability index came out at 3.53 ± 0.28 under setting [1] and 3.6 ± 0.21 under setting [2].

In the case of RDNSPFDGPGGNLAHAFQPGPGIG [MMP1], the protein stability index runs as follows: under setting [1], 4.05 ± 0.39; under setting [2], 4.03 ± 0.17.

For the sequence SPKYKQDVEGAESQLDEDEHGLHT [TRAF3IP2], the protein stability index stood at 5.45 ± 0.14 under setting [1] and 5.5 ± 0.27 under setting [2].

In turn, EDDVSFLMKHKSRKRRLFCTMEPE [TRIM35] returned a protein stability index under setting [1] of 3.61 ± 0.28 and a protein stability index under setting [2] of 3.74 ± 0.19.

KEYPVVPRSTVRQKVASNHSPFSS [TBX5]: the protein stability index came to 3.61 ± 0.38 under setting [1] and 3.72 ± 0.32 under setting [2].

Take NASFIDGYRQQKAYIATQGPLAET [PTPRD]: the protein stability index reads like this: under setting [1], 3.46 ± 0.43; under setting [2], 3.53 ± 0.49.

In the case of FMLLTQARLFDEPQLASLCLDTID [BTBD1], the protein stability index was 2.29 ± 0.52 under setting [1] and 2.34 ± 0.48 under setting [2].

In the case of TPIEVLCENFPEMATYLRYVRRLD [CSNK1G3], the protein stability index runs as follows: under setting [1], 2.39 ± 0.3; under setting [2], 2.6 ± 0.44.

For EKCKEEFVEEIKKLATQHKQLISQ [ZMYND11], the protein stability index reads like this: under setting [1], 4.2 ± 0.28; under setting [2], 4.06 ± 1.2.

In the case of TDDPTAGRSNAPITAPTEVEVMDE [CSNK1G3], the protein stability index under setting [1] came to 5.67 ± 0.13 and the protein stability index under setting [2] stood at 5.51 ± 0.22.

Consider PQTLIMAYDYAKEVNSAEELEGLI [FEM1C], for which the protein stability index is, setting by setting: under setting [1], 3.75 ± 0.32; under setting [2], 3.56 ± 0.27.

Regarding LGTENLHLIFSYSVWVLRDFPEDG [VPS39], the protein stability index worked out at 2.94 ± 0.46 under setting [1] and 2.74 ± 0.7 under setting [2].

Turning to GKKDVSHSSPVDLKIPQVRGMDLS [LCOR], the protein stability index runs as follows: under setting [1], 4.32 ± 0.31; under setting [2], 4.24 ± 0.36.

As to MQEDRDGSCSTVGGVGYGDSKDCI [ZNF277], the protein stability index turned out to be 5.04 ± 0.28 under setting [1] and 5.1 ± 0.18 under setting [2].

MKSAMRKLWSKKVSLAGKWLYHS [OR4A15] displayed a protein stability index (treatment: DMSO, c terminus: native) of 2.47 ± 1.1 and a protein stability index (treatment: MLN4924 1 uM, 8 h, c terminus: native) of 2.59 ± 0.44.

For the sequence CEKFLQEVDFFQRYFIADLPHLQD [INTS4], the protein stability index is 2.49 ± 0.54 under setting [1] and 1.95 ± 0.48 under setting [2].

EGCGPPLRRWLRANLAASGGYAIA [TSPAN10]: the protein stability index runs as follows: under setting [1], 1.94 ± 0.21; under setting [2], 2.52 ± 0.3.

For IYPVWTYSYLVLLFPVFLATDYLR [SLC19A2], the protein stability index by setting is: under setting [1], 3.11 ± 0.53; under setting [2], 3.29 ± 0.37.

Consider ITTKTADGKCAYRASYSDGKLKAP [MLH1], for which the protein stability index by setting is: under setting [1], 3.78 ± 0.2; under setting [2], 3.67 ± 0.12.

For SAIVLGDLKLRKFVFSTEERTQLR [TRIB1], the protein stability index was found to be 2.77 ± 0.48 under setting [1] and 2.92 ± 0.29 under setting [2].

The sequence LFPPKAKSNQPKSLEDLIFESLPE [ATE1] had a protein stability index under setting [1] of 3 ± 0.055 and a protein stability index under setting [2] of 3.66 ± 0.59.

QEVSSVRSLSSTGSLPSHAPPSED [DLC1]: the protein stability index runs as follows: under setting [1], 5.42 ± 0.22; under setting [2], 5.44 ± 0.24.

Consider NVYHSYDLPWFRTLSWYFLLCVNY [CDS2], for which the protein stability index is, setting by setting: under setting [1], 2.93 ± 0.23; under setting [2], 2.98 ± 0.28.

Sequence DPESERALQAPHSPSKTDGKELAG [PBXIP1] yielded a protein stability index under setting [1] of 5.48 ± 0.28 and a protein stability index under setting [2] of 5.75 ± 0.25.

As to KKEDTEKERDLRDVGDWRKNIEEK [TNNI2], the protein stability index runs as follows: under setting [1], 5.38 ± 0.26; under setting [2], 5.39 ± 0.21.

Consider QLLLIKALQEKLWNVAAPLYLKQS [INTS4], for which the protein stability index by setting is: under setting [1], 3.14 ± 0.31; under setting [2], 2.89 ± 0.18.

As for VGGVLRGLNHSLSYDVALHRTRLQ [SCARA5], the protein stability index by setting is: under setting [1], 2.59 ± 0.18; under setting [2], 2.84 ± 0.32.

Consider LAEYCVKTKAPAPDEGSDLFYDDY [CDC34], for which the protein stability index reads like this: under setting [1], 4.12 ± 0.24; under setting [2], 4.33 ± 0.41.

DREQVSSYNITVTATDGGSPPLST [PCDHGA10]: the protein stability index under setting [1] was determined as 4.54 ± 0.24 and the protein stability index under setting [2] was 4.74 ± 0.14.

On to ELGSEVDITEGDRKPDYTAYVAMI [ATF4], for which the protein stability index under setting [1] was determined as 3.46 ± 0.15 and the protein stability index under setting [2] stood at 3.61 ± 0.3.

Turning to GGSSGQVTSNGSIGRDPPAETQPQ [CLPTM1], the protein stability index under setting [1] is 5.47 ± 0.24 and the protein stability index under setting [2] is 5.42 ± 0.21.

Consider SLFCLEDKELLCCSCQADPRHQGH [TRIM35], for which the protein stability index runs as follows: under setting [1], 3.06 ± 0.16; under setting [2], 3.35 ± 0.4.

Consider LEISPDCSQYDRVYCGAGVQKEHE [PCMTD2], for which the protein stability index runs as follows: under setting [1], 4.56 ± 0.3; under setting [2], 4.44 ± 0.21.

With DSDSEKQQQIHHIKNLYAFNLFCQ [VPS39], the protein stability index by setting is: under setting [1], 2.58 ± 0.29; under setting [2], 2.71 ± 0.35.

As to KISKEEMVRRLKMVVKTFMDMDQD [PDS5B], the protein stability index runs as follows: under setting [1], 2.26 ± 0.21; under setting [2], 2.23 ± 0.25.

With TLGELKQNLSRSWHDVQVSSAYVK [TPD52L2], the protein stability index was determined as 2.96 ± 0.23 under setting [1] and 3.26 ± 0.27 under setting [2].

ENEQRRLFIQKEEQLQQILKRKNK [MNAT1]: the protein stability index was 4.38 ± 0.18 under setting [1] and 4.21 ± 0.2 under setting [2].

Take LLPNPYQQDFLGLPEELRRLSGLS [C22orf15]: the protein stability index is, setting by setting: under setting [1], 2.91 ± 0.17; under setting [2], 2.91 ± 0.34.
